Test [1] addresses T1, purified caspase-14 (Homo sapiens, UniProt P31944).
T1 construct: human caspase-14 was purified as a heterodimer comprising a large subunit (17 KDa) and a small subunit (11 KDa); from tissue; host or cells: human heel stratum corneum (cornified cells)
T1 sequence (P31944 6-146 limits assumed): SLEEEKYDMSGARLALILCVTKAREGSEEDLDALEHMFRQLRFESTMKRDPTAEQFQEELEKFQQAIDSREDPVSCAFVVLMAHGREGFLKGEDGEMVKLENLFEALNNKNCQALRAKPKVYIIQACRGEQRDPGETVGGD
T1 sequence (P31944 153-242 limits assumed): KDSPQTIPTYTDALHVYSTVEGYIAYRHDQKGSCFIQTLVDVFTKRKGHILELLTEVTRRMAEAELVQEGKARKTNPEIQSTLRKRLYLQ
Description: Caspase-14 activity inhibitor assay with WEHD-MCA substrate. It counts as biochemical. As for the experimental part: Currently, 15 types of human caspases are known, but caspase-14 was incubated together with various peptide inhibitors for caspases (YVAD (SEQ ID NO:3), VDVAD (SEQ ID NO:4), DEVD (SEQ ID NO:5), VEID (SEQ ID NO:6), IETD (SEQ ID NO:7), LEHD (SEQ ID NO:8), DNLD (SEQ ID NO:9)), class-specific inhibitors for cysteine proteinases (IAA) or serine proteinases (AEBSF). WEHD-MCA (SEQ ID NO:10) was used as substrate in the presence of 1.3 M sodium citrate and 5 mM DTT, and the residual enzyme activity was measured. The tested enzyme concentrations were 5, 2.5 and 1.25 μM. The values were represented as mean values for multiple assays.
Caspase-14 activity was assayed by the method described in Mikolajczyk J. et al., Biochemistry 43, 10560-9 (2004), with some modifications, using Ac-WEHD-MCA as substrate. Briefly, an assay mixture was prepared from 45 μL of 0.1 M HEPES buffering solution (pH 7.5), 0.06 M NaCl, 0.01% CHAPS, 5 mM DTT, 1.3 M sodium citrate and 10 μM WEHD-MCA (all final concentrations). After adding enzyme sample (5 μl) to the mixture, it was incubated for 10-30 minutes. The reaction was suspended by addition of 150 μl of 0.1 M monochloroacetic acid, and Fluoroskan Ascent FL (Thermo Electron Co., Wolsam, Mass.) was used for measurement with a 355 nm excitation wavelength and a 460 nm luminous wavelength. For the inhibitor assay, caspase-14 and peptide inhibitor were incubated at room temperature for 15 minutes in assay buffer, and 5 μl of 100 μM WEHD-MCA was added to start the assay.
Human cornified cells (about 14 g) scraped from healthy human heel were extracted with 0.1 M Tris-HC1 (pH 8.0) containing 0.14 M NaCI, using a glass homogenizer. After centrifuging at 15,000g for 60 minutes, the supernatant was collected. It was concentrated with Amicon Ultra (Millipore, MA) and desalted with a Fast Desalting Column HR10/10 (Amersham Biosciences), and then the crude product was coated onto a HiPrep 16/10 Q XL column. The column was cleaned with 20 mM Tris-HCI (pH 8.0) and eluted with a 0-1 M linear NaCl gradient. The fraction was tracked by Western blotting using caspase-14antibody (H-99) (Santa Cruz Biotechnology, CA) and h14D^146 antibody. Each fraction was subjected to assay of hydrolytic activity on Ac Trp-Glu-His-Asp-methyl-coumarinamide (WEND-MCA) (Peptide Institute, Inc., Osaka, Japan). The positive fraction was applied to a Mono Q column equilibrated with the same buffering solution, and eluted with a NaCl gradient of up to 1M. The caspase-14 fraction was further separated by Mono S positive cation exchange chromatography. The column was equilibrated with 20mM acetic acid buffer (pH 4.5) and eluted with a 0-1 M NaCl gradient. The positive fraction was concentrated and applied to a chromatofocusing Mono P column equilibrated with 25 mM ethanolamine (pH 8.3). Next, elution was performed while forming a pH gradient from pH 8 to 5 using 46ml of Polybuffer (pH 5.0). Caspase-14 was subjected to final purification using Superdex 75 gel chromatography. The protein concentration was determined using a BioRad Protein Assay Kit (BioRad Lab, Hercules, CA).

Test [2] has as its system skin equivalent models. As to conditions: skin equivalent models (Weil et al., 1999); cited from earlier work.
The target of test [3] is T2, caspase-14 (Homo sapiens, UniProt P31944).
T2 construct: human caspase-14 was purified as a heterodimer comprising a large subunit (17 KDa) and a small subunit (11 KDa); from tissue; host or cells: human heel stratum corneum (cornified cells)
T2 sequence (P31944 6-146 limits assumed): T1 sequence (P31944 6-146 limits assumed)
T2 sequence (P31944 153-242 limits assumed): T1 sequence (P31944 153-242 limits assumed)
Description: ICAD cleavage by purified caspase-14, Western blotting. As to conditions: for inhibition of ICAD decomposition by caspase-14: prolonged incubation (up to 16 hours), kosmotropic salt. It counts as biochemical. The source says: Identified were 33 KDa and 27 KDa cleavage products. […] ICAD decomposition was observed only in the presence of a kosmotropic salt.
For Western blotting and immunohistochemical analysis of ICAD, anti-ICAD IgG (FL331, Santa Cruz Biotechnology) and DFF45/ICAD Ab-2 (NeoMarkers, Fremont, Calif.) were used.
The protein was separated by SDS-polyacrylamide gel electrophoresis with a 5-20% gradient gel. After electrophoresis, the protein was transferred onto a polyvinylidene difluoride membrane (Immobilon-P, Millipore, Bedford, Mass.) and incubated together with anti-caspase-14 antibody including H-99, h14D^146 or C20. Peroxidase-labeled anti-rabbit IgG (Sigma) or anti-goat IgG was used as secondary antibody and ECL-Plus (Amersham) was used as immunoreactive protein for visualization by chemiluminescence.
The present inventors tested the effect of caspase-14 on ICAD, in the course of searching for natural substrates of caspase-14, because disappearance of nuclei is a very important event for final differentiation.

Test [4] deals with T3, caspase-3 (Homo sapiens, UniProt P42574).
T3 construct: When recombinant active caspases were incubated together with SCCA-1; purchased BIOMOL Research Labs, Inc. (Plymouth Meeting, PA)
T3 sequence (P42574 29-175 limits assumed): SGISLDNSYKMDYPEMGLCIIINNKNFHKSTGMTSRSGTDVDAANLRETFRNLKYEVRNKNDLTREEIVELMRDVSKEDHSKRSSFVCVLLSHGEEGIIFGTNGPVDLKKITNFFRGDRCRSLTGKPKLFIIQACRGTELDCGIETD
T3 sequence (P42574 176-277 limits assumed): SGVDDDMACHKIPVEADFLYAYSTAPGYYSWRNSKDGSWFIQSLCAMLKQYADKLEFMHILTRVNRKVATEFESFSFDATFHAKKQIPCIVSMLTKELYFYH
Description: Caspase-3 activity with synthetic substrate DEVD-MCA or natural substrate ICAD. It counts as biochemical. From the text: The enzymatic properties of purified caspase-14 were highly unique. Purified caspase-14exhibited relatively wide inhibitor sensitivity with respect to known caspase inhibitors. […] It was shown, for the first time, that SCCA-1 is an endogenous inhibitor of caspase-14. The property most specific to SCCA-1 is its high specificity for caspase-14. The other members, caspases 1-10, had never been reported as being affected by SCCA-1. […] This behavior is in contrast to Crm A. […] is also known to suppress several caspases including caspase-1 and caspase-8 (Gagliardini V. et al., Science 263: 826-8 (1994)). XIAP is known to inhibit caspase-3, -7, and -9 (Srinivasula S.M. et al., Nature 410: 112-6 (2001)). Since the anti-apoptotic protein p35 inhibits caspase-1, -3, -6, -7, -8, and -10, it is believed to have a wider spectrum.

For test [5], the system named is caspases 1-10. Description: Recombinant active caspases incubated with SCCA-1. Type of test: biochemical. The source says:
Benzyloxycarbonyl (Z)-YVAD-FMK, Z-YVAD-FMK, Z VDVAD-FMK, Z-DEVD-FMK, Z-VEID-FMK, Z-IETD-FMK, Z-LEHD-FMK, and Z-VAD-FMK were purchased from BioVision (Mountain View, CA). Recombinant caspases 1-10 were obtained from BIOMOL Research Labs, Inc. (Plymouth Meeting, PA).
Although SCCA-1 belongs to the serpin superfamily, it inhibits cysteine proteinases such as papain and cathepsin L (Takeda A. et al., Biol. Chem. 383, 1231-6 (2002)). […] Kosmotropic conditions were used for caspase-14. […] The enzyme activity was not recovered even with extended incubation.

[6] abbreviates: WEHD-MCA substrate, 1.3 M sodium citrate, 5 mM DTT, tested concentrations 5, 2.5 and 1.25 μM.

Entries after “also recorded” stand apart in the source; their conditions may differ. Read-outs that look alike come from different tables or passages of the source. * marks the point of attachment. Cbz = O=C(OCc1ccccc1)*; CH2F = FC*

With `NCCc1ccc(S(=O)(=O)F)cc1` [AEBSF, 4-(2-aminoethyl)benzenesulfonyl fluoride], the “inhibiting effect against caspase-14 activity (residual enzyme activity)” value (“inhibiting effect … (residual enzyme activity)” below) in test [1] (setting [6]) is given as “no significant inhibiting effect”. Take `O=C(O)CI` [IAA, iodoacetic acid]: the “inhibiting effect … (residual enzyme activity)” value in test [1] is reported as “no significant inhibiting effect”. In the case of Benzyloxycarbonyl (Z)-YVAD-FMK, the “inhibiting effect … (residual enzyme activity)” value in test [1] (setting [6]) is “most powerful inhibiting effect; also recorded: strongest inhibition”. As for DEVD-FMK: caspase-3 inhibitor, the “inhibiting effect … (residual enzyme activity)” value in test [1] (setting [6]) is “exhibited sensitivity”.

With “IETD-FMK: caspase-8 inhibitor (Cbz-IETD-CH2F; SMILES CC[C@H](C)[C@H](NC(=O)OCc1ccccc1)C(=O)N[C@@H](CCC(=O)O)C(=O)N[C@H](C(=O)N[C@@H](CC(=O)O)C(=O)CF)[C@@H](C)O)”, the “inhibiting effect … (residual enzyme activity)” value in test [1] (setting [6]) is on record as “exhibited sensitivity”. Still for that read-out and setting: as for “LEHD-FMK: caspase-9 inhibitor (Cbz-LEHD-CH2F; SMILES CC(C)C[C@H](NC(=O)OCc1ccccc1)C(=O)N[C@@H](CCC(=O)O)C(=O)N[C@@H](Cc1c[nH]cn1)C(=O)N[C@@H](CC(=O)O)C(=O)CF)”, the entry is “exhibited sensitivity”. On to “VAD-FMK: pan-caspase inhibitor (Cbz-Val-Ala-Asp-CH2F)”, for which, in test [1] (setting [6]), the “inhibiting effect … (residual enzyme activity)” value was “inhibited caspase-14 activity at about the same level as VAD-FMK; also recorded: one of the most powerful caspase-14 inhibitors”. The “inhibition of disappearance of nuclei” value in test [2] is recorded as “inhibited disappearance of nuclei”. Turning to “VDVAD-FMK: caspase-2 inhibitor (Cbz-VDVAD-CH2F; SMILES CC(C)[C@H](NC(=O)OCc1ccccc1)C(=O)N[C@@H](CC(=O)O)C(=O)N[C@H](C(=O)N[C@@H](C)C(=O)N[C@@H](CC(=O)O)C(=O)CF)C(C)C)”, the “inhibiting effect … (residual enzyme activity)” value in test [1] (setting [6]) is recorded as “exhibited sensitivity”. As for “VEID-FMK: peptide inhibitor for caspases (Cbz-VEID-CH2F; SMILES CC[C@H](C)[C@H](NC(=O)[C@H](CCC(=O)O)NC(=O)[C@@H](NC(=O)OCc1ccccc1)C(C)C)C(=O)N[C@@H](CC(=O)O)C(=O)CF)”, the “inhibiting effect … (residual enzyme activity)” value in test [1] (setting [6]) is “virtually no effect”.

B1: SCCA-1: recombinant squamous cell carcinoma antigen 1, an ov-serpin family papain-like cysteine protease inhibitor (protein)
chain: MNSLSEANTKFMFDLFQQFRKSKENNIFYSPISITSALGMVLLGAKDNTAQQIKKVLHFDQVTENTTGKAATYHVDRSGNVHHQFQKLLTEFNKSTDAYELKIANKLFGEKTYLFLQEYLDAIKKFYQTSVESVDFANAPEESRKKINSWVESQTNEKIKNLIPEGNIGSNTTLVLVNAIYFKGQWEKKFNKEDTKEEKFWPNKNTYKSIQMMRQYTSFHFASLEDVQAKVLEIPYKGKDLSMIVLLPNEIDGLQKLEEKLTAEKLMEWTSLQNMRETRVDLHLPRFKVEESYDLKDTLRTMGMVDIFNGDADLSGMTGSRGLVLSGVLHKAFVEVTEEGAEAAAATAVVGFGSSPTSTNEEFHCNHPFLFFIRQNKTNSILFYGRFSSP
As for B1, the “inhibition of ICAD cleavage by caspase-14” value in test [3] (10 μM SCCA-1, in presence of kosmotropic salt) is “completely inhibited”. For the same molecule, the figures for the “inhibition of ICAD decomposition by caspase-14” value in test [3] and in test [3] (listed as SCCA 1) were “inhibition of ICAD decomposition” and “inhibited ICAD decomposition by caspase-14”, respectively. Further, the “inhibiting effect … (residual enzyme activity)” value in test [1] (setting [6]) is “inhibited caspase-14 activity against WEHD-MCA in a dose-dependent manner”. Besides, the “inhibition of caspase-3 activity” value in test [4] (natural substrate ICAD) and in test [4] (synthetic substrate DEVD-MCA) was “did not inhibit” each time. For the same molecule, the “effect on enzyme activity of caspases 1-10” value in test [5] was “none of the caspase members (1-10) were affected in their enzyme activity”.

(Values after patent US9063157B2, “Method for evaluating skin condition using squamous cell carcinoma antigen as marker” (Shiseido Company, Ltd., priority 2005, dated 2015).)
